Assay results published in IntAct's records for PubMed 15585574.

Target: wasl_mouse Wasl (UniProt Q91YD9)
Sequence (Q91YD9 whole entry): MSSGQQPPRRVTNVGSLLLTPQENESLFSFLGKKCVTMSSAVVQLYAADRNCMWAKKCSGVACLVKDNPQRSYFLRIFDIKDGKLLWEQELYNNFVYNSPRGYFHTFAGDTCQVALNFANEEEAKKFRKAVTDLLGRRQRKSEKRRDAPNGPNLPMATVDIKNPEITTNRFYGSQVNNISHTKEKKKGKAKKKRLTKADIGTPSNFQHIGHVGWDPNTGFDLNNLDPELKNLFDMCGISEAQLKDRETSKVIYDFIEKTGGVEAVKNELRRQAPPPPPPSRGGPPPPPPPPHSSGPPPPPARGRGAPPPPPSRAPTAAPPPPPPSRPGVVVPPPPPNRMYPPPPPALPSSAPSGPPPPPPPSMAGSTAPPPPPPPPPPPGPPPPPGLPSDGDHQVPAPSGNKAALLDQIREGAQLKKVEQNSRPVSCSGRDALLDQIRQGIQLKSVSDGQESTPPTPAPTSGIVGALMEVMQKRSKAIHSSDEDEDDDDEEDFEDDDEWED

Sequence of Src substrate cortactin (Mus musculus), Q60598 W525L (Q60598 whole entry W525L): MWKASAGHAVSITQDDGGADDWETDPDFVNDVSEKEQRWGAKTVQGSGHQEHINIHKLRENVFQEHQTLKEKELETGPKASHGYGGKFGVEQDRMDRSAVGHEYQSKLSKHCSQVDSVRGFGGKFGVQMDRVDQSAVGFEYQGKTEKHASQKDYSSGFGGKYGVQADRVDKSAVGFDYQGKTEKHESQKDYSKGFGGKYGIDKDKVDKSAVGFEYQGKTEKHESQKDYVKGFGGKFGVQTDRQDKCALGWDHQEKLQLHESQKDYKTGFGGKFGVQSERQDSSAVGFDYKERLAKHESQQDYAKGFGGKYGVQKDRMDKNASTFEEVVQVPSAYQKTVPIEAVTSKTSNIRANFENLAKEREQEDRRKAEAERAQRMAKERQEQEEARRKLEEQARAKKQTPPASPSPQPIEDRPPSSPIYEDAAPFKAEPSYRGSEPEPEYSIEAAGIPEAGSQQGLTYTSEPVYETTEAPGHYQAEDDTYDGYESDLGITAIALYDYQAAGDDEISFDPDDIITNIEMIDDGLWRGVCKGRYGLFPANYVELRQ

effect of a mutation on the interaction: disrupting interaction
Substance: Src substrate cortactin (Mus musculus), Q60598 W525L
